The test deals with recombinant His-MYC-bHLH-LZ protein. Description: BLI.

B1: recombinant GST-MKK3 protein (enzyme)
chain: MESPASSQPASMPQSKGKSKRKKDLRISCMSKPPAPNPTPPRNLDSRTFITIGDRNFEVEADDLVTISELGRGAYGVVEKVRHAQSGTIMAVKRIRATVNSQEQKRLLMDLDINMRTVDCFYTVTFYGALFREGDVWICMELMDTSLDKFYRKVLDKNMTIPEDILGEIAVSIVRALEHLHSKLSVIHRDVKPSNVLINKEGHVKMCDFGISGYLVDSVAKTMDAGCKPYMAPERINPELNQKGYNVKSDVWSLGITMIEMAILRFPYESWGTPFQQLKQVVEEPSPQLPADRFSPEFVDFTAQCLRKNPAERMSYLELMEHPFFTLHKTKKTDIAAFVKEILGEDS
As usually defined, the Kd is the equilibrium constant for the complex coming apart. Take B1: the Kd turned out to be 225 nM.
